The nature of the data set: yeast display, Sf9 membrane polyspecificity reagent, FACS + sequencing; frameworks hold sequencing errors. Summed up: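 Galactose-induced (36–48 hours) yeast carrying a synthetic nanobody display library were exposed to 10% biotinylated, detergent-solubilized Sf9 membrane reagent at 4 °C for 1 hour. FACS followed streptavidin microbead enrichment, using low and high (top ~1%) gates for expression (anti-HA) and reagent binding (streptavidin). Colony PCR, MiSeq 2 × 250 sequencing and CDR-length filtering followed. Labels for polyreactivity reflect the gate of origin.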
For the sequence “QVQLVESGGGLVQAGGSLRLSCAASGSIFGRNAMGWSRQAPGTERELVARISSRGGSTYYADSVKGRFTISRDNAKNTVYLQMNSLKPEDTAVYYCNRDRTWQTNDYWGQGTQVTVSS”, the “polyreactivity (PSR sort gate)” value is listed as “high polyreactivity”.

Turning to “QVQLVESGGGLVQAGGSLRLSCAASGFIFSRYAMGWSRQAPGKERELVAAIRFSGSITYYADSVKGRFTISRDNAKNTVYLQMNSLKPEDTAVYYCAAYRRYYGWYEYWGQGTQVTVSS”, the “polyreactivity (PSR sort gate)” value is “high polyreactivity”.

Consider “QVQLVESGGGLVQAGGSLRLSCAASGGTFVGNAMGWYRQAPGKERELVAAISTNSGSTYYADSVKGRFTISRDNAKNTVYLQMNSLKPEDTAVYYCATRNSSKRRGYYYWGQGTQVTVSS”, for which the “polyreactivity (PSR sort gate)” value is listed as “high polyreactivity”.

On to “QVQLVESGGGLVQAGGSLRLSCAASGLTFKTYAMGWYRQAPGKERELVAAITRNGGSTYYADSVKGRFTISRDNAKNTVYLQMNSLKPEDTAVYYCAARRAYDNRHDYWGQGTQVTVSS”, for which the “polyreactivity (PSR sort gate)” value was “high polyreactivity”.

On to “QVQLVESGVGLVQAGGSLRLICAASGFILGQNAMGWYRQAPGKEREFVADISWSGDSTYYADSVKGRFTISRDNAKNTVYFQMNSLKPEDTAVYYCAADPYYNWGYYYWGQGTQVTVSS”, for which the “polyreactivity (PSR sort gate)” value was “low polyreactivity”.

Take “HDQLVETGGGLVQAGGSLRLSCAASGFTFRAYAMGWYRQAPGKEREFVAAISRRGGSTSYADSVKGRFTISRDNAKNTVYLQMNSLKPEDTAVYYCAATYQILTTSAHDSWGQGTQVTVSS”: the “polyreactivity (PSR sort gate)” value is “high polyreactivity”.

Regarding “QVQLVESGGGLVQARGSLRLSCAASVSTFGGNAMGWYRQAPGKERQLVAAISCIGGGTYYADSVKGRFTISRDNAKNTVYLQMKSLKPEYTAVYYCAAKIFIRVHYYSYRMYYWGQGTQLTVSS”, the “polyreactivity (PSR sort gate)” value is “low polyreactivity”.

As to “QVQLVESGGGLVQAGGSLRLSCAASGFTFRLYVMGWYIQAPGKERELVAAISSRGGSTYYADSLKGRFTISRDNAKNTVNLQMNSLKPEDTAVYYCAADRPRGRETVDYWGQGTQVTVSS”, the “polyreactivity (PSR sort gate)” value is “high polyreactivity”.

For “QVQLVESGGGIVQAGGSLRLSCAASGLNFYWYAMGWYRQAPGKERELVAAITWSGGITYYADSVKGRFTISRDNANNTVYLQMNSLNPEDTAVYYCADDDDYGDVTYDYWGHGTQVTVSS”, the “polyreactivity (PSR sort gate)” value is “low polyreactivity”.

For “QVQLVEAGGGLVQAGGSLRLSCAASGRIFYSNAMGWCRQAPGKERELVAAITWRGGSTYYADSVKGRFTISRDNAKNTVYLQMNSLKPEDTAVYYCATDGYDDTHYYYLGQGTQVTVSS”, the “polyreactivity (PSR sort gate)” value is on record as “low polyreactivity”.

With “QVQLVESGGGLVQAGGTLRLSCAASGSIFRRKVMVWYRQAPGKERELVAAMSWSGDRTYYADSVKGRFTISRDNAKNTVYLQMNSLKPEDTAVYYCAAANASPRRYGQYDDWGQGTQVTVSS”, the “polyreactivity (PSR sort gate)” value is on record as “high polyreactivity”.

Take “QVQLVESGGGLVQAGGSLRLSCAASGFTFTYYALGGYRQAPGKERELVARIRGRSGSTYYADSVKGRFTISRDNAKNTVYLQMNSLKPEDTAVYYCNADFNRTVAGTPEVDYWGQGTQVTVSS”: the “polyreactivity (PSR sort gate)” value is listed as “high polyreactivity”.

Regarding “QVQLVESGGGLVQAGGSLRLSCAASGRIFYFNTMGWYRQAPGKERELVAAISRSGTSTYYADSVKGRFTISRDNAKNTVYLQMNSLKPEDTAVYYCAAVKSYYKLDYWGQGTQVTVSS”, the “polyreactivity (PSR sort gate)” value was “high polyreactivity”.

With “QVQLVESGGGLVQPGGSLRLSCAASGFIFYYYAMGWYRQAPGKERELVAVLTESGSSTYYADSVKGRFTISRDNAKNTVYLQMNSLKPEDTAVYYCNADFWPYTGKYDYWGQGTQVTVSS”, the “polyreactivity (PSR sort gate)” value is on record as “low polyreactivity”.

Consider “QVQLVESGGGLVQAGGSLRLSCAASGFTFAPYVMGWYRQAPGKETELVAAIPTRGGSTYYADSVKGRFTISRDNAKNTVYLQMNSLKPEDTAVYYFAAQRRYDTADHGYWGQGTQVTVSS”, for which the “polyreactivity (PSR sort gate)” value was “high polyreactivity”.

“QVQLVESGGGLVQAGGSLRLSCAASGNTFRFYTMGWYRQAPGKERELVAAINSSGRTNYADSVKGRFTISRDNAKNTVYLQMNSLIPEDTAVYYCAADQQRSIDAPYGYWGQGTQVTVSS”: the “polyreactivity (PSR sort gate)” value is “low polyreactivity”.

With “QVQLVESGGGLVQAGGSLRLSCAASGRTFIPYAMGWYRQAPGKERELVAAISYSGGSTYYADSVKGRFTISRDNAKNTVYLQMYSLKPEDTAVYYCNAYYGSYYYDYNYWGQGTQVSVSS”, the “polyreactivity (PSR sort gate)” value was “high polyreactivity”.

“QVQLVESGGGLVQAGGSLRLSCAASGFIFDSNPIGWYRQAPWKEREVVAAISSSGGSTYYADSVKGRFTISRDNAKNTVYLQMKSLKPEDTAVYYCGAESQRFISSSEVYWGQGTQVTVSS”: the “polyreactivity (PSR sort gate)” value was “low polyreactivity”.

On to “QVQLVESGGGLDQAGGSLRLSCAASGFTFYPYTMGWYRQAPGKERELVADITYDSTYYADSVKGRFTISRDNAKNTVFLQMNSLKPADTAVYYCNATGYSVSRSAYWYGWYDYWGQGTQVTVSS”, for which the “polyreactivity (PSR sort gate)” value was “low polyreactivity”.

Consider “QVQLVESGGGLVQAGGSLRLSCAASGIIFRYYTMGWYRQAPGTERELVAAITSGGSTNYADSVKGRFTISRDNAKNTVYLQMNSLKPEDTAVYYCRQFSVWGYDYWGQGTQVTVSS”, for which the “polyreactivity (PSR sort gate)” value is listed as “high polyreactivity”.

For “QVQLVESGGGLVQAGGSLRLSCAASGFTFDTNVRGWYRQAPGKERELVAAITGPGGSTYYADSVKGRFTISRDNAKNTVYLQMNSLNPEDTAVYYCNRVYYRRRLYDYWGQGTQVTVSS”, the “polyreactivity (PSR sort gate)” value is “high polyreactivity”.

With “QVQLVESGGGLVQAGGSLRLSCAASGSTFQPYAMGWYRQAPGKEREFVATISGSAGSTYYADSVKGRFKISRDNAKNTVYLQMNSLKPEDTGVYYCNARPARKSLDYDYWGQGTQVTVSS”, the “polyreactivity (PSR sort gate)” value was “low polyreactivity”.

As to “QVQLVESGGGLVQAGRSLRLSCAASGSTFPVNTMGWYRQAPGKERELVAAITKNGANTYYADSVKGRFTISRDNAKNTVYLQMNSLKPEYTAVYYCAALYVYGKSYSRWLVELDYWGQGTQVTVSS”, the “polyreactivity (PSR sort gate)” value was “low polyreactivity”.

In the case of “HDQLVESGGGLLQAGGSLRLSCAASGITLYRYVMGWYRQAPGKERELVAYIAGRGTSTYYSDSVKGRFTISRDHAKNTVYLQMNSLKPEDTAVYFCNAEYTKTGALVIPYTYYYAEDYWGQGTQVTVSS”, the “polyreactivity (PSR sort gate)” value was “low polyreactivity”.

As for “QVQLVESGGGLVQAGGSLRLSCAASGSTFPYYAMGWYRQAPGKERELVASIRKRGGGTYYADSVKGRFTISRDNAKNTVYLQMNSLKPEDTAVYYCAVRVYQFRYTGYDYWGQGTQVTVSS”, the “polyreactivity (PSR sort gate)” value was “high polyreactivity”.

As to “QVQLVESGGGLVQAGGSLRLSCAASGSIFSTYAMGWYRQAPGKERELVAAISRSGGSTYYADSVKGRFTISRDNAKNTVFLQMNSLKPEDTAVYYCAKVGRRQRYDYWGQGTQVTVSS”, the “polyreactivity (PSR sort gate)” value is given as “high polyreactivity”.

Take “QVQLEESGGGLVQAGGSLRLSCAATGFIFRGYAMGWYRPAPGKERELVAAITSSGGDTYYADSVKGRFTISRDNAKNTVYLQMNSLKPEDTAVYYCNARDYASGTEGDYWGQGTQVTVSS”: the “polyreactivity (PSR sort gate)” value is “low polyreactivity”.

For the sequence “QVQLVESGGGLVQAGGSLRLSCAASGSTFLSNAMGWYRQAPGKERELVAGITSGTSTYYADSVKGRFTISRDNAKYTVYLQMNSLKPEDTAVYYCNADDAEVLYQYVEYDYWGQGTQVTVSS”, the “polyreactivity (PSR sort gate)” value was “low polyreactivity”.

As for “QVQLVESGGGLVQAGGSLRLSCAASGRIFFPYYTMGWYRQAPGKERELVAVISSSGSSTYYADSVKGRFTISRDNAKNTVYLQMNSLKPEDTAVYFCNAYGGVSTRLRGDYWGQGTQVTVSS”, the “polyreactivity (PSR sort gate)” value was “high polyreactivity”.

On to “QVQLVESGGGLVQAGGSLRLSCAASGLIFRAYAMGWYRQAPGKERELVAAITRSGGSTYYADSVKGRFTISRDNAKNTVDLQMNSLKPEDTAVYYCATAQWVGYWDDYWGQGTQVTVSS”, for which the “polyreactivity (PSR sort gate)” value is “high polyreactivity”.

These data come from the nanobody polyreactivity screen of Harvey et al. (2022).
